Measured values: IntAct's records for PubMed 19503079

Columns and labels:
[1] = biological target: T1, atxr6_arath ATXR6 (UniProt Q9FNE9)
T1 sequence: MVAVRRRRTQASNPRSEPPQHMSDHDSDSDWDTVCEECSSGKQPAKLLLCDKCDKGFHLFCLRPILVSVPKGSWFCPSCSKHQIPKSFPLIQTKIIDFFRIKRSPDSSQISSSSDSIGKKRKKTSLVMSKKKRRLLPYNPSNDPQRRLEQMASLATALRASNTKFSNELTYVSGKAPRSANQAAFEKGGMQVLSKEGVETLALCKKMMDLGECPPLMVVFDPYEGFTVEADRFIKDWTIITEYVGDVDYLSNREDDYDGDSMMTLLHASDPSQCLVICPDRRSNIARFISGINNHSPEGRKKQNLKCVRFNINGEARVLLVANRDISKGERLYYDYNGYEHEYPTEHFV

[2] = biological target: T2, atxr5_arath ATXR5 (UniProt Q8VZJ1)
T2 sequence: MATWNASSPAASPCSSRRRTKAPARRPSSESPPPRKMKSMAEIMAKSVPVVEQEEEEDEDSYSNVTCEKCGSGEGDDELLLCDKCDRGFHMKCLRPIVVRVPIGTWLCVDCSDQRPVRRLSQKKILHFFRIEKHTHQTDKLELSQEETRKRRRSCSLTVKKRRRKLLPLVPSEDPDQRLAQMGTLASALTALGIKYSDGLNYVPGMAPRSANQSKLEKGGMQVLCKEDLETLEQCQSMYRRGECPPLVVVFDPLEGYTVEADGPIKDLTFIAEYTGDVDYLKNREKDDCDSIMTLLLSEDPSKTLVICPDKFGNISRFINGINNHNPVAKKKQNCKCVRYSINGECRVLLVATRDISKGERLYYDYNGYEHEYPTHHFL

effect of a mutation on the interaction [1]: disrupting interaction | effect of a mutation on the interaction [2]: disrupting interaction
Substance: Histone H3.1 (Arabidopsis thaliana (Mouse-ear cress)) (from UniProt P59226) K28A
